Primed or numbered codes have the meaning given here. [ ]: non-standard residue; d: D form. α′‑methyl‑α′,β′‑epoxide = C-terminal α′-methyl-α′,β′-epoxyketone; hPhe = N[C@@H](CCc1ccccc1)C(=O)O; Nle = CCCC[C@H](N)C(=O)O
These binders were tested against proteasome in bovine aortic endothelial (BAE) cells (bovine) (assay: cell-based or functional assay).

IC50, inhibition of BAE cell proliferation ([methyl-3H]-thymidine incorporation)	Binder
16 nM	Ac-LFLL-{α′‑methyl‑α′,β′‑epoxide} [Ac-LFLL-epoxide]
700 nM	Ac-LALL-{α′‑methyl‑α′,β′‑epoxide} [Ac-LALL-epoxide]
20 nM	Ac-[hPhe]LFL-{α′‑methyl‑α′,β′‑epoxide} [compound 16]
7 nM	Ac-LLFL-{α′‑methyl‑α′,β′‑epoxide} [Ac-LLFL-epoxide]
83 nM	Ac-ALLL-{α′‑methyl‑α′,β′‑epoxide} [Ac-ALLL-epoxide]
34 nM	Ac-LLAL-{α′‑methyl‑α′,β′‑epoxide} [Ac-LLAL-epoxide]

Molecular target: proteasome in bovine aortic endothelial (BAE) cells (bovine)
Experiment: cell-based or functional assay
Remark: another data set of the same source

IC50, inhibition of BAE cell proliferation	Binder
600 nM	isooctanoyl-Pro-Phe-Leu-{α′,β′‑epoxide with α′‑methyl (epoxyketone)} (also: C-terminal Leu as α′,β′-epoxyketone (epoxide) with α′-methyl substituent) [Isooctanioc-PFL-Ex]
53000 nM	Ac-[Nle]PFL-{α′‑methyl‑α′,β′‑epoxide} [Ac-NorLPFL-Ex]
400 nM	{N‑dimethylaminobenzoyl}-Pro-Phe-Leu-{α′,β′‑epoxide with α′‑methyl (epoxyketone)} (also: C-terminal Leu as α′,β′-epoxyketone (epoxide) with α′-methyl substituent) [N-dimethylaminobenzoyl-PFL-EX]
58000 nM	Ac-GPFL-{α′‑methyl‑α′,β′‑epoxide} [Ac-GPFL-Ex]
400 nM	pyrazinecarbonyl-Pro-Phe-Leu-{α′,β′‑epoxide with α′‑methyl (epoxyketone)} (also: C-terminal Leu as α′,β′-epoxyketone (epoxide) with α′-methyl substituent) [Pyrazinecarbonyl-PFL-Ex]
